Laboratory results published in US20080075684A1.

Experiments:
keratin of human hair [1] = test: quantitative hair binding test: human hair incubated with His-tagged comparison protein, detection with anti-polyhistidine peroxidase conjugate and TMB, absorption at 405 nm
keratin of human hair [2] = test: quantitative hair binding test with the denatured (not renatured) protein: human hair, detection with anti-polyhistidine peroxidase conjugate and TMB, absorption at 405 nm
keratin of human hair [3] = test: quantitative hair binding test: human hair incubated with renatured His-tagged KBD-B, detection with anti-polyhistidine peroxidase conjugate and TMB, absorption at 405 nm

YaaD from B. subtilis (comparison protein, with His tag) (from UniProt P37527)
A405 nm (keratin of human hair [1]): 0.088

B1: KBD-B (keratin-binding domain B of human desmoplakin), expressed by the vector pQE30-KBD-B in E. coli (protein)
chain: MRGSHHHHHHGSACELEPHTGLLLLSVQKRSMSFQGIRQPVTVTELVDSGILRPSTVNELESGQISYDEVGERIKDFLQGSSCIAGIYNETTKQKLGIYEAMKIGLVRPGTALELLEAQAATGFIVDPVSNLRLPVEEAYKRGLVGIEFKEKLLSAERAVTGYNDPETGNIISLFQAMNKELIEKGHGIRLLEAQIATGGIIDPKESHRLPVDIAYKRGYFNEELSEILSDPSDDTKGFFDPNTEENLTYLQLKERCIKDEETGLCLLPLKEKKKQVQTSQKNTLRKRRVVIVDPETNKEMSVQEGVDLQPSLIS
A405 nm (keratin of human hair [2]): 0.254 | A405 nm (keratin of human hair [3]): 1.59
